{
  "source": "patent US8722052B2",
  "about": "“Vaccinia virus protein A46 peptide and use thereof” (priority 2008, dated 2014)",
  "biological_target": "T1, CD4-TLR4 (UniProt O00206+P06332)",
  "T1 construct": "forced dimerisation of TLR4 TIR domains in the absence of LPS (by overexpressing the fusion protein CD4-TLR4); CD4 (fusion partner); expressed in transfected cells; host or cells: HEK293_TLR4, transiently transfected with 50 or 100 ng CD4/TLR4-encoding plasmid",
  "T1 sequence (P06332+O00206 with tags, fused parts or gaps)": "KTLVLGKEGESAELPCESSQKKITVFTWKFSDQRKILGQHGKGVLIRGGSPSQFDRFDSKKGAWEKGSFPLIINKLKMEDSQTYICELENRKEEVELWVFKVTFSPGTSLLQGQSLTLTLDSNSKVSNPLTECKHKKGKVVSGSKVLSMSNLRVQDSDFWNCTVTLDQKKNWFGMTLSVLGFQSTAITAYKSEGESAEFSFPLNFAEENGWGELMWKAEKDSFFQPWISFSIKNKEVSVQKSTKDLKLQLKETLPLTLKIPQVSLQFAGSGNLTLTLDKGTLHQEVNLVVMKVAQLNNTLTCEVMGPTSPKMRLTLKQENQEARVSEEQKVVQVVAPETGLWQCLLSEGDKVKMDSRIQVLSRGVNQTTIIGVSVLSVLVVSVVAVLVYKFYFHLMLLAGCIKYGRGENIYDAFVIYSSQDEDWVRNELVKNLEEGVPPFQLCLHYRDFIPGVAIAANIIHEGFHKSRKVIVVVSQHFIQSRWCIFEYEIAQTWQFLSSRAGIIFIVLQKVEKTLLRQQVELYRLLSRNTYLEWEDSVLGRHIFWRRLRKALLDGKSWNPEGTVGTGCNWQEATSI",
  "assay": "ligand-independent NFκB activation by overexpressed CD4-TLR4 in HEK293_TLR4 cells",
  "format": "cell-based",
  "settings": "50 or 100 ng CD4/TLR4 plasmid, peptide 5 or 25 μM 2 or 9 hours after transfection",
  "protocol": "FIGS. 24A and B are bar charts showing the effect of A464 on ligand-independent TLR4 signalling in HEK293 cells. HEK293_TLR4 cells were seeded in 96 well plate (1.5×10^5 cells/ml) 24 hours before transfection with NFκB-luciferase and TK-Renilla reporter gene plasmids. NFκB activation was stimulated by transfecting either 50 or 100 ng of CD4/TLR4-encoding plasmid or by stimulating with 10 ng/ml LPS. The total amount of plasmid DNA transfected into the cells was made up to 230ng by adding pcDNA. A464 (SEQ ID NO. 20) was added to the cells at a concentration of 5 or 25 μM 2 hours (A) or 9 hours (B) after the transfection or LPS-stimulation. Cells were harvested and assayed for NFκB activation by reporter gene assay 24 hours post-transfection. No peptides were added to the control wells (black bars). Data is representative of two experiments, each performed in triplicate and is expressed as mean fold induction±s.d. relative to control levels;\nHEK293 cells were transfected using GeneJuice® a proprietary non-toxic transfection reagent. 200 μl/well cells at a density of 1×10^5 cells/ml were seeded the day before transfection. 0.8 μl of GeneJuice was mixed with 9.2 μl of serum-free DMEM (SFM) per transfection and incubated for 5 min at room temperature before adding the appropriate amount of the plasmid DNA. […] Luciferase activity was analysed using a luminometer. […]",
  "data": [
    {"sequence": "KYSFKLILAEYRRRRRRRRR [Peptide A464]", "values": [
      {"measurement": "inhibition of NFκB activated by forced dimerisation of TLR4 TIR domains (CD4-TLR4)", "result": "insensitive to inhibition"}
    ]}
  ]
}
